Results published in patent publication US20200199241A1 (Chugai, published 2020).
Changes are numbered by the printed parent chain. Numbers in names are those of the source.

T1: FcγRIIa type R (human, UniProt P12318 36-217)
T1 construct: also called FcγRIIaR; FcγRIIa(R)
T1 chain: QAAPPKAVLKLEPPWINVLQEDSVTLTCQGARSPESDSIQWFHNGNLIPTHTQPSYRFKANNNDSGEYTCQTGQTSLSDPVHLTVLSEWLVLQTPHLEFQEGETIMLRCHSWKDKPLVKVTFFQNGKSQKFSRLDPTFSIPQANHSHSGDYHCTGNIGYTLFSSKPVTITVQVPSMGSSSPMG

T2: FcγRIIa type H (human, UniProt P12318 36-217)
T2 construct: also called FcγRIIaH; FcγRIIa(H)
T2 sequence: T1 chain with R133H

T3: FcγRIIb (human, UniProt P31994 43-217, limits assumed)
T3 construct: also called FcγIIB; CD32
T3 sequence: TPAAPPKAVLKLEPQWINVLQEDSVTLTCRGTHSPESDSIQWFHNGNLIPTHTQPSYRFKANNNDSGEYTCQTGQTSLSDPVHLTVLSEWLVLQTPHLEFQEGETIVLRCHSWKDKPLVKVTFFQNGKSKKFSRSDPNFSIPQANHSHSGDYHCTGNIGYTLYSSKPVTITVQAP

T4: FcγRIIa type R (human, UniProt P12318 36-217)
T4 construct: also called FcγRIIaR; FcgRIIaR
T4 chain: T1 chain

T5: FcγRIIa type H (human, UniProt P12318 36-217)
T5 construct: also called FcγRIIaH; FcγRIIH
T5 sequence: T1 chain with R133H

T6: FcγRIIb (human, UniProt P31994 43-217, limits assumed)
T6 construct: also called FcgRIIb; FcγIIB
T6 sequence: T3 sequence

T7: human FcγRIIa type R (human, UniProt P12318 36-217)
T7 construct: also called FcγRIIaR; FcγRIIa(R)
T7 chain: T1 chain

T8: human FcγRIIa type H (human, UniProt P12318 36-217)
T8 construct: also called FcγRIIaH; FcγRIIa(H)
T8 sequence: T1 chain with R133H

T9: human FcγRIIb (human, UniProt P31994 43-217, limits assumed)
T9 construct: also called FcγIIB
T9 sequence: T3 sequence

B1: IL6R-BP191/IL6R-L (antibody, human IgG1)
heavy: QVQLQESGPGLVKPSETLSLTCAVSGHSISHDHAWSWVRQPPGEGLEWIGFISYSGITNYNPSLQGRVTISRDNSKNTLYLQMNSLRAEDTAVYYCARSLARTTAMDYWGEGTLVTVSSASTKGPSVFPLAPSSKSTSGGTAALGCLVKDYFPEPVTVSWNSGALTSGVHTFPAVLQSSGLYSLSSVVTVPSSSLGTQTYICNVNHKPSNTKVDKKVEPKSCDKTHTCPPCPAPDLLGGDSVFLFPPKPKDTLMISRTPEVTCVVVDVSDEDGEVKFNWYVDGVEVHNAKTKPREEQYNSTYRVVSVLTVLHQDWLNGKEYKCKVSNAALPKPIEKTISKAKGQPREPQVYTLPPSRDELTKNQVSLTCLVKGFYPSDIAVEWESNGQPENNYKTTPPVLDSDGSFFLYSKLTVDKSRWQQGNVFSCSVMHEALHNHYTQESLSLSP
light: DIQMTQSPSSLSASVGDRVTITCRASQDISSYLNWYQQKPGKAPKLLIYYTSRLHSGVPSRFSGSGSGTDFTFTISSLQPEDIATYYCQQGNTLPYTFGQGTKVEIK
notes: Anti-IL-6R human IgG1 variant; copies: 2 + 2
B2: IL6R-BP185/IL6R-L (antibody, human IgG1)
heavy: B1 heavy with L236Y, G239D, D270H
light: B1 light
notes: as for B1
B3: IL6R-BP183/IL6R-L (antibody, human IgG1)
heavy: B1 heavy with L236Y, D270H
light: B1 light
notes: as for B1
B4: IL6R-BP187/IL6R-L (antibody, human IgG1)
heavy: B1 heavy with D235E, L236Y, D270H
light: B1 light
notes: as for B1
B5: IL6R-BP186/IL6R-L (antibody, human IgG1)
heavy: B1 heavy with L236Y, G239D, D270H, Y298D
light: B1 light
notes: as for B1
B6: IL6R-BP184/IL6R-L (antibody, human IgG1)
heavy: B1 heavy with D270H, A328K
light: B1 light
notes: as for B1
B7: IL6R-BP126/IL6R-L (antibody, human IgG1)
heavy: B1 heavy with D235E, D270H, G273P, A328L, K332A
light: B1 light
notes: IgG1; Fc variant of IL6R-B3; copies: 2 + 2
B8: IL6R-BP106/IL6R-L (antibody, human IgG1)
heavy: B1 heavy with D235E, G273P, A328K, K332A
light: B1 light
notes: as for B7
B9: IL6R-BP078/IL6R-L (antibody, human IgG1)
heavy: B1 heavy with D235E, D270H, G273P, A328K, K332M
light: B1 light
notes: as for B7
B10: IL6R-BP120/IL6R-L (antibody, human IgG1)
heavy: B1 heavy with D235E, D270H, G273P, A328E, K332A
light: B1 light
notes: as for B7
B11: IL6R-BP112/IL6R-L (antibody, human IgG1)
heavy: B1 heavy with D235E, D270H, A328K, K332A
light: B1 light
notes: as for B7
B12: IL6R-BP911/IL6R-L (antibody, human IgG1)
heavy: B1 heavy with D235E, D270H, G273P, A328K
light: B1 light
notes: as for B7
B13: IL6R-BP117/IL6R-L (antibody, human IgG1)
heavy: B1 heavy with D235E, D270H, G273P, A328D, K332A
light: B1 light
notes: as for B7
B14: IL6R-BP107/IL6R-L (antibody, human IgG1)
heavy: B1 heavy with D235E, D270E, G273P, A328K, K332A
light: B1 light
notes: as for B7
B15: IL6R-BP119/IL6R-L (antibody, human IgG1)
heavy: B1 heavy with D235E, D270H, G273P, A328M, K332A
light: B1 light
notes: Alteration introduced into IL6R-B3; also called P238D/K326M
B16: IL6R-BP912/IL6R-L (antibody, human IgG1)
heavy: B1 heavy with D235E, D270H, G273P, A328K, K332R
light: B1 light
notes: Alteration introduced into IL6R-B3; also called P238D/A330R
B17: IL6R-BP121/IL6R-L (antibody, human IgG1)
heavy: B1 heavy with D235E, D270H, G273P, A328Q, K332A
light: B1 light
notes: Alteration introduced into IL6R-B3; also called P238D/K326Q

Molecular target: T10, FcγRIa (human, UniProt P12314 16-292, limits assumed)
T10 construct: also called CD64
Experiment: SPR (Biacore), method of Example 14
T10 sequence (P12314 16-292 limits assumed): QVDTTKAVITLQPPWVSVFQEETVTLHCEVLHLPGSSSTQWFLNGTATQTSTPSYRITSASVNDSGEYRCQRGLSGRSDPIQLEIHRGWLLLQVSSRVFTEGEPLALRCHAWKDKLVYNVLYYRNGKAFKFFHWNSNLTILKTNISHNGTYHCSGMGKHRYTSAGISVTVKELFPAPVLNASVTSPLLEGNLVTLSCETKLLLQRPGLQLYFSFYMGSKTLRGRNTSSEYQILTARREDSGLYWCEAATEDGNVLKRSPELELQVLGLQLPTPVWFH
Description: (§1) Furthermore, KD(IIaR)/KD(IIb) and KD(IIaH)/KD(IIb) in the table respectively represent the value obtained by dividing the KD value of each variant for FcγRIIaR by the KD value of each variant for FcγRIIb, and the value obtained by dividing the KD value of each variant for FcγRIIaH by the KD value of each variant for FcγRIIb. KD(IIb) of the parent polypeptide/KD(IIb) of the altered polypeptide refers to the value obtained by dividing the KD value of the parent polypeptide for FcγRIIb by the KD value of each variant for FcγRIIb.

| Kd | Binder |
| --- | --- |
| 0.004 µM | B1 |
| 0.063 µM | B2 |
| 0.017 µM | B3 |
| 0.025 µM | B4 |
| 0.045 µM | B5 |
| 0.011 µM | B6 |

Molecular target: T1, FcγRIIa type R
Experiment: SPR (Biacore), method of Example 14
Description: as §1

| Kd | Binder |
| --- | --- |
| 3 µM | B1 |
| 0.88 µM | B2 |
| 2.6 µM | B3 |
| 2.8 µM | B4 |
| 0.96 µM | B5 |
| 2.3 µM | B6 |

Molecular target: T2, FcγRIIa type H
Experiment: SPR (Biacore), method of Example 14
Description: as §1

| Kd | Binder |
| --- | --- |
| 27 µM | B1 |
| 15 µM | B3 |
| 18 µM | B4 |
| 9.3 µM | B5 |
| 30 µM | B6 |

Molecular target: T3, FcγRIIb
Experiment: SPR (Biacore), method of Example 14
Description: as §1

| Kd | Binder |
| --- | --- |
| 0.15 µM | B1 |
| 0.069 µM | B2 |
| 0.24 µM | B3 |
| 0.29 µM | B4 |
| 0.061 µM | B5 |
| 0.13 µM | B6 |

Molecular target: T11, FcγRIIIa type V (human, UniProt P08637 17-208, limits assumed)
T11 construct: also called FcγRIIIaV; FcγRIIIa(V)
Experiment: SPR (Biacore), method of Example 14
T11 sequence (P08637 17-208 F176V limits assumed): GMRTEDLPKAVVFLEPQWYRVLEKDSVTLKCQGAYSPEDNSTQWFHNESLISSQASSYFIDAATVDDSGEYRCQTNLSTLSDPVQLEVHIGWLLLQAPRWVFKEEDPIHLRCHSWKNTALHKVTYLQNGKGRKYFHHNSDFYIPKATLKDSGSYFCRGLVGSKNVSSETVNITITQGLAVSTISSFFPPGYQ
Description: as §1

| Kd | Binder |
| --- | --- |
| 49 µM | B1 |
| 36 µM | B2 |
| 56 µM | B3 |
| 56 µM | B4 |
| 49 µM | B5 |
| 66 µM | B6 |

Molecular target: T12, FcγRIa (human, UniProt P12314 16-292, limits assumed)
T12 construct: also called FcgRIa; CD64
Experiment: SPR (Biacore), FcγR over captured antibody
T12 sequence (P12314 16-292 limits assumed): as the sequence (P12314 16-292 limits assumed) above

| Kd | Binder |
| --- | --- |
| 0.0074 µM | B7 |
| 0.004 µM | B8 |
| 0.0082 µM | B9 |
| 0.0066 µM | B10 |
| 0.0065 µM | B11 |
| 0.049 µM | B12 |
| 0.0041 µM | B13 |
| 0.0015 µM | B14 |

Molecular target: T4, FcγRIIa type R
Experiment: SPR (Biacore), FcγR over captured antibody

| Kd | Binder |
| --- | --- |
| 11 µM | B7 |
| 11 µM | B8 |
| 15 µM | B9 |
| 9.6 µM | B10 |
| 3.5 µM | B11 |
| 16 µM | B12 |
| 9.2 µM | B13 |
| 12 µM | B14 |

Molecular target: T5, FcγRIIa type H
Experiment: SPR (Biacore), FcγR over captured antibody

| Kd | Binder |
| --- | --- |
| 45 µM | B7 |
| 36 µM | B8 |
| 45 µM | B9 |
| 65 µM | B10 |
| 35 µM | B11 |
| 37 µM | B12 |
| 41 µM | B13 |
| 52 µM | B14 |

Molecular target: T6, FcγRIIb
Experiment: SPR (Biacore), FcγR over captured antibody

| Kd | Binder |
| --- | --- |
| 1.4 µM | B7 |
| 0.93 µM | B8 |
| 1.1 µM | B9 |
| 1 µM | B10 |
| 0.32 µM | B11 |
| 0.89 µM | B12 |
| 0.8 µM | B13 |
| 0.93 µM | B14 |

Molecular target: T13, FcγRIIIa type V (human, UniProt P08637 17-208, limits assumed)
T13 construct: also called FcγRIIIaV; FcgRIIIaV
Experiment: SPR (Biacore), FcγR over captured antibody
T13 sequence (P08637 other isoform, or with tags, fused parts or gaps limits assumed): as the sequence (P08637 17-208 F176V limits assumed) above, with A179S counted along it

| Kd | Binder |
| --- | --- |
| 56 µM | B7 |
| 55 µM | B8 |
| 78 µM | B9 |
| 79 µM | B10 |
| 69 µM | B11 |
| 58 µM | B12 |
| 67 µM | B13 |
| 63 µM | B14 |

Molecular target: T3, FcγRIIb
Experiment: ratio of SPR KD values, parent IL6R-B3/IL6R-L
Description: as §1

| KD(IIb) of the parent polypeptide/KD(IIb) of altered polypeptide | Binder |
| --- | --- |
| 21.2 fold | B1 |
| 44.5 fold | B2 |
| 12.9 fold | B3 |
| 10.7 fold | B4 |
| 50.7 fold | B5 |
| 24.5 fold | B6 |

Molecular target: T14, human FcγRIa (human, UniProt P12314 16-292, limits assumed)
T14 construct: also called CD64
T14 sequence (P12314 16-292 limits assumed): as the sequence (P12314 16-292 limits assumed) above
Experiment: SPR (Biacore), binding amount relative to IL6R-BF648/IL6R-L = 100

| relative binding | Binder |
| --- | --- |
| 117 | B15 |
| 60 | B16 |
| 118 | B17 |

Molecular target: T7, human FcγRIIa type R
Experiment: as above

| relative binding | Binder |
| --- | --- |
| 181 | B15 |
| 81 | B16 |
| 155 | B17 |

Molecular target: T8, human FcγRIIa type H
Experiment: as above

| relative binding | Binder |
| --- | --- |
| 133 | B15 |
| 93 | B16 |
| 135 | B17 |

Molecular target: T9, human FcγRIIb
Experiment: as above

| relative binding | Binder |
| --- | --- |
| 110 | B15 |
| 103 | B16 |
| 113 | B17 |

Molecular target: T15, human FcγRIIIa type V (human, UniProt P08637 17-208, limits assumed)
T15 construct: also called FcγRIIIaV; FcγRIIIa(V)
T15 sequence (P08637 other isoform, or with tags, fused parts or gaps limits assumed): as the sequence (P08637 17-208 F176V limits assumed) above, with A179S counted along it
Experiment: as above

| relative binding | Binder |
| --- | --- |
| 145 | B15 |
| 97 | B16 |
| 157 | B17 |

Molecular target: T3, FcγRIIb
Experiment: SPR (Biacore); KD for FcγRIIaH divided by KD for FcγRIIb of the same antibody; column head in Table 52-1
Description: as §1

| KD(IIaH)/KD(IIb) | Binder |
| --- | --- |
| 185 | B1 |
| 105 | B2 |
| 62.5 | B3 |
| 62.3 | B4 |
| 152 | B5 |
| 238 | B6 |

Molecular target: T3, FcγRIIb
Experiment: SPR (Biacore); KD for FcγRIIaR divided by KD for FcγRIIb of the same antibody; column head in Table 52-1
Description: as §1

| KD(IIaR)/KD(IIb) | Binder |
| --- | --- |
| 20.3 | B1 |
| 12.6 | B2 |
| 10.7 | B3 |
| 9.7 | B4 |
| 15.8 | B5 |
| 18.2 | B6 |
